From patent US20100204445A1
Ends that are not written are not given here.

How the values were obtained:
[1] = biological target: recombinant cohesin (CipA of Clostridium josui, BAA32429) (Clostridium josui); assay: SPR (Biacore T-100), fusion captured via anti-JNK3 antibody on Protein A chip, cohesin as analyte, +Ca2+ (1 mM CaCl2), no EGTA
[2] = biological target: recombinant cohesin (CipA of Clostridium josui, BAA32429) (Clostridium josui); assay: batch elution of N-terminal fusion from cohesin carrier with 5 mM EGTA at 4 C, SDS-PAGE densitometry, 360 min set to 100
[3] = biological target: recombinant cohesin (CipA of Clostridium josui, BAA32429) (Clostridium josui); assay: SPR (Biacore T-100), same format, 5 mM EGTA in running buffer
[4] = biological target: recombinant cohesin (CipA of Clostridium josui, BAA32429) (Clostridium josui); assay: batch elution of C-terminal fusion from cohesin carrier with 5 mM EGTA at 4 C, SDS-PAGE densitometry, 360 min set to 100
[5] = biological target: recombinant cohesin (CipA of Clostridium josui, BAA32429) (Clostridium josui); assay: SPR as in Example 7, under the action of a chelating agent

Binder	Kd [1] [nM]	koff [1] [s⁻¹]	kon [1] [M⁻¹ s⁻¹]	rate of eluted recombinant protein (%) at 5 min [2] [%]	rate of eluted recombinant protein (%) at 30 min [2] [%]	rate of eluted recombinant protein (%) at 60 min [2] [%]	rate of eluted recombinant protein (%) at 360 min [2] [%]	Kd [3] [nM]	koff [3] [s⁻¹]	kon [3] [M⁻¹ s⁻¹]	rate of eluted recombinant protein (%) at 5 min [4] [%]	rate of eluted recombinant protein (%) at 30 min [4] [%]	rate of eluted recombinant protein (%) at 60 min [4] [%]	rate of eluted recombinant protein (%) at 360 min [4] [%]	Kd [5] [nM]
recombinant JNK3 of which a wild-type dockerin was fused at the N-terminal (protein, not shown: large carriers; small tags and cut ends, not fully specified (C-terminus)) MGLKGDVNNDGAIDALDIAALKKAILTQSTSNINLTNADMNNDGNIDAIDFAQLKVKLLN	6.5	0.0053	810000	11.5	28.8	39.6	100	3.9	0.0079	2e+06	–	–	–	–	–
recombinant JNK3 of which a wild-type dockerin was fused at the C-terminal (protein, not shown: large carriers; small tags and cut ends) MGLKGDVNNDGAIDALDIAALKKAILTQSTSNINLTNADMNNDGNIDAIDFAQLKVKLLN	–	–	–	–	–	–	–	–	–	–	1.5	10.5	20.9	100	–
recombinant JNK3 of which an I49G-substituted dockerin polypeptide is fused at the N-terminal (protein, not shown: large carriers; small tags and cut ends) MGLKGDVNNDGAIDALDIAALKKAILTQSTSNINLTNADMNNDGNIDAGDFAQLKVKLLN	2.2	0.0066	3e+06	100	100	100	100	170	0.05	300000	–	–	–	–	–
recombinant JNK3 of which an I49N-substituted dockerin polypeptide was fused at the N-terminal (protein, not shown: large carriers; small tags and cut ends) MGLKGDVNNDGAIDALDIAALKKAILTQSTSNINLTNADMNNDGNIDANDFAQLKVKLLN	3.7	0.005	1.3e+06	65.9	94.1	100	100	56	0.089	1.6e+06	–	–	–	–	–

Next, values leading:

Kd [1] [nM]	koff [1] [s⁻¹]	kon [1] [M⁻¹ s⁻¹]	rate of eluted recombinant protein (%) at 5 min [2] [%]	rate of eluted recombinant protein (%) at 30 min [2] [%]	rate of eluted recombinant protein (%) at 60 min [2] [%]	rate of eluted recombinant protein (%) at 360 min [2] [%]	Kd [3] [nM]	koff [3] [s⁻¹]	kon [3] [M⁻¹ s⁻¹]	rate of eluted recombinant protein (%) at 5 min [4] [%]	rate of eluted recombinant protein (%) at 30 min [4] [%]	rate of eluted recombinant protein (%) at 60 min [4] [%]	rate of eluted recombinant protein (%) at 360 min [4] [%]	Kd [5] [nM]	Binder
–	–	–	–	–	–	–	–	–	–	55.7	100	100	100	–	recombinant JNK3 of which an L16T/I49T-substituted dockerin polypeptide was fused at the C-terminal (protein, not shown: large carriers; small tags and cut ends) MGLKGDVNNDGAIDATDIAALKKAILTQSTSNINLTNADMNNDGNIDATDFAQLKVKLLN
4.5	0.0045	1e+06	74.7	100	100	100	67	0.048	710000	–	–	–	–	–	recombinant JNK3 of which an I49S-substituted dockerin polypeptide is fused at the N-terminal (protein, not shown: large carriers; small tags and cut ends) MGLKGDVNNDGAIDALDIAALKKAILTQSTSNINLTNADMNNDGNIDASDFAQLKVKLLN
–	–	–	–	–	–	–	–	–	–	83.1	100	100	100	–	recombinant JNK3 with an I49T-substituted dockerin polypeptide fused at the C-terminal (protein, not shown: large carriers; small tags and cut ends) MGLKGDVNNDGAIDALDIAALKKAILTQSTSNINLTNADMNNDGNIDATDFAQLKVKLLN
7.6	0.0033	430000	25.3	53.3	68.2	100	8.1	0.011	1.4e+06	–	–	–	–	–	recombinant JNK3 of which an I49V-substituted dockerin polypeptide is fused at the N-terminal (protein, not shown: large carriers; small tags and cut ends) MGLKGDVNNDGAIDALDIAALKKAILTQSTSNINLTNADMNNDGNIDAVDFAQLKVKLLN
3.8	0.006	1.6e+06	66.5	100	100	100	19	0.023	1.2e+06	–	–	–	–	–	recombinant JNK3 of which an I49T-substituted dockerin polypeptide is fused at the N-terminal (protein, not shown: large carriers; small tags and cut ends) MGLKGDVNNDGAIDALDIAALKKAILTQSTSNINLTNADMNNDGNIDATDFAQLKVKLLN
3.2	0.015	4.9e+06	55.2	100	100	100	12	0.029	250000	–	–	–	–	–	recombinant JNK3 of which an L16T/I49T-substituted dockerin polypeptide is fused at the N-terminal (protein, not shown: large carriers; small tags and cut ends) MGLKGDVNNDGAIDATDIAALKKAILTQSTSNINLTNADMNNDGNIDATDFAQLKVKLLN
–	–	–	–	–	–	–	–	–	–	–	–	–	–	5.2	recombinant fused protein in which a dockerin polypeptide with the 48th amino acid alanine (A) substituted with serine (S) was fused at the N-terminal of … (protein, not shown: large carriers; small tags and cut ends, not fully specified (C-terminus)) MGLKGDVNNDGAIDALDIAALKKAILTQSTSNINLTNADMNNDGNIDSIDFAQLKVKLLN
